Source: the nanobody polyreactivity screen of Harvey et al. (2022)

Assay: yeast display, Sf9 membrane polyspecificity reagent, FACS + sequencing; frameworks hold sequencing errors
In short: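 Synthetic nanobody libraries on Saccharomyces cerevisiae BJ5465 were galactose-induced for 36–48 hours, stained 1 hour at 4 °C with 10% biotinylated, detergent-solubilized Sf9 membrane reagent and enriched on streptavidin microbeads. FACS then separated cells into low and high (top ~1%) gates by anti-HA (expression) and streptavidin (reagent binding) fluorescence. Genes were colony-PCR amplified, MiSeq 2 × 250 sequenced and CDR-length filtered. A clone's polyreactivity label is that of its gate of origin.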

Row | Sequence | polyreactivity (PSR sort gate)
1 | QVQLVESGGGLVQAGGSHRLSCAASGSTFGDYAMGWYRQAPGKERELVAAISVRGGSTYYADSVKGRFTISRDNAKNTVYLQMNSLKPVVTAVYYCNKDLYRYPGYDYWGQGTQVTVSS | high polyreactivity
2 | QVQLVESGGGLVQAGGSHRLSCAASGSTFIDYAMGWYRQAPGKERELVAAITNGGNTKYADSVKGRFTISRDNAKNTVYLQMNSLKPEDTAVYYCAREPSIFTPSYDYWGQGTQVTVSS | low polyreactivity
3 | QVQLVESGGGLVQAGGSHRLSCAASGSTFRVYAMGGYRQAPGKERELVARISITGGTTRYADSVKGRFTISRDNAKNTVYLQMNSLKPEDTAVYYCNADYDWYYWYLYKYPFDYWGQGTQVTVSS | low polyreactivity
4 | QVQLVESGGGLVQAGGSHRLSCAASGSTRYYMGWYRQAPGKEREFVARITWSGTRTYYADSVKGRFTISRDNAKNTVYLQMNSLKPEDTAVYYCNAGVVWGQGTQVTVSS | high polyreactivity
5 | QVQLVESGGGLVQAGGSHRLSCAASGYIFRYSTMGWYRQAPGKERELVAVITRGGSTYYADSVKGRFTISRDNAKNTVYLQMTSLNPEDTAVYYCAAVRTKVWRGPEMDYWGQCTQVTVSS | high polyreactivity
6 | QVQLVESGGGLVQAGGSHRLSCAAYGRTFGVYAMGWYRQAPGKERELVAAISSRGGSTYYADSVKGRFTISRDNAKNSVYLQMNSLKPEDTAFYYCAAPWYQGLDYWGQGTQVTVSS | high polyreactivity
7 | QVQLVESGGGLVQAGGSHRLSCAAYGSTFFPNCMGWYRQAPGKERELVAAITSGGSTYADSVKGRFTISRDNAKNTVYLQMNSLKQEDTAFYYCAADSRQGFLLYGYWGQATQVTVSS | low polyreactivity
8 | QVQLVESGGGLVQAGGSHRLSCADSGFILAYYAMGWYRPAPGKERELVAAISIGSSTDYADSVKGRFTISRDNAKNTVYLQMNSLKPEDTAVYYCAARDYYYEYDYWGQGTQVTVSS | low polyreactivity
9 | QVQLVESGGGLVQAGGSHRLSFAASGGIFRGYALGWNRQAPGKERELGATIRSSGRTNYADSVKGRFTIARDNAKNTVYLQMNCLKPDDTAVYYCNKRRWWQYDRWSDWVLGGDDYWGQGTQLTVSS | low polyreactivity
10 | QVQLVESGGGLVQAGGSHRLSSAASGLTFGGNAMGWYRQAPGKERELVAGISSSGNTNYADSVKGRFTISRDNAKNTVYLQMNSLKPEDTAVYYCAADENITYPVYDMYDWGQGTQVTVSS | low polyreactivity
11 | QVQLVESGGGLVQAGGSHRLSSAASGTTFYGNAMGWYRQAPGKERELVAAISQGGGRTYYADSVKGRFTISRDIAKNTVYLQMISLKPEDTAVYYCAADVWWYRLDFDYWGQGTQVTVSS | high polyreactivity
12 | QVQLVESGGGLVQAGGSHRLTCAASGSTFFAYAIGCYRPAPGTERELVAAISSRGGRTYYADSVKGRFTISRDNAQNTVYLQMNSLKPEDTAVYYCAVGPGLAQSYDYWGQGTQVTVSS | high polyreactivity
13 | QVQLVESGGGLVQAGGSHRVSCAASGSTFDRYTMGWYRQAPGTERELVAAISISGGSTYYADSVKGRFTISRDNAKNTVYVQMNSLKPEDTAVYYCAARLDTVTDYYYWGQGTQVNVSS | low polyreactivity
14 | QVQLVESGGGLVQAGGSHSLRCAASGSIFYRYDRGWYRQAPGTARELVAAITRSGGSTYYADSVKGRFTISRDNAKNTVYLQMNSLKPEDTAVYFCNASIDRYRLLIFPRPYWKYAYWGQGTQVTVSS | low polyreactivity
15 | QVQLVESGGGLVQAGGSIRLICAASGPIFSSYAIGCYRQAPGKERELVAAITSSGTSTYYADSVKGRFTISRDYAKNTVYVQMTSLKPEDTAVYYCAARRARTGDYWGQGTQVTLSS | high polyreactivity
16 | QVQLVESGGGLVQAGGSIRLIWAASGSTVPSYTMGWYRQAPGKERELVAAISGSGGSTYYADSVKGRFTISRDNAKNTVYLQMNSLKPEDTAVYSCAADYRLQLSYAFGDDYWGQGPQVTVSS | low polyreactivity
17 | QVQLVESGGGLVQAGGSIRLSCAASGITFGRNTMGWYRQAPAKERELVAAIDSGGNTYADSVKGRFTISRDNAKNTVYLQMNSLKPEDTAVYYCAVDGYYLYYDYDYWGQGTQVTVSS | low polyreactivity
18 | QVQLVESGGGLVQAGGSIRLSCAASGRILYGNAMGWYRQAPGKEREFVAAITFRGGSTYYADSVKGRFTISRDNAKNTVYLQMNSLKPEDTAVYYCNARGHCGWGTSMYYWGQGTQVTVSS | high polyreactivity
19 | QVQLVESGGGLVQAGGSIRLSCAASGRTFGQNPMGWYRQAPGKERELVAVITRGGSTNYADSVKGRFTISRDNAKNTVYLQMNSLKPEDTAVYYCAADYTAYGYDYWGQGTQVTVSS | low polyreactivity
20 | QVQLVESGGGLVQAGGSIRLSCAASGRTFYPNAMGWYRQAPGKERELVAVISSGGNTDYADSVKGRFTISRDNAKNTVYLQMYSLKPEDTAVYYCNTDTTVVSHYRSYWWGAGYDYWGQGTQVTVSS | low polyreactivity
21 | QVQLVESGGGLVQAGGSIRLSCAASGSIFEVNAMGWYRQAPGKERELVAGISNADSTNYADSVKGRFTISRDNAKNTVYLQMNSLKPEDTAVYYCATDLYRDPPKDLLGPEYDYWGQGTQVTVSS | low polyreactivity
22 | QVQLVESGGGLVQAGGSIRLSCAASGSIFLGYAMGSYRQATGKETELFAAISSGGTRTYYADSVKGRFTITRDNAKNTVYLQMNCLKPEDTAVYYCSARYIPIQYPSYRTWGGYSWGQGTQVTVSS | high polyreactivity

Row | Sequence | polyreactivity (PSR sort gate)
23 | QVQLVESGGGLVQAGGSIRLSCAASGSTFFQYAMGWYRQAPGKERELVAAISSRGGRTYYADSVKGSFTISRDNAKNTVYLQMNSLKPEDTAVYYCAVDHLTRSGDGEYWGQGTQVTVSS | high polyreactivity
24 | QVQLVESGGGLVQAGGSIRLSCAASGSTFKTYVMGWYRQAPGKERELVAAISFSDGTTYYADSVKGRFTISRDNAKNTVYLQMNSLKPEDTAVYYCAAEGYQSQYDYWGQGTQVTVSS | high polyreactivity
25 | QVQLVESGGGLVQAGGSIRLSCAASGSTFYSYAMGWYRQATGKERELVAAISSGGSTNYADSVKGRFTISRDNAKNTVYLQMNSLKPEDTAVYYCAVDYPVIVYQRGYWGQGTQVTVSS | low polyreactivity
26 | QVQLVESGGGLVQAGGSIRLSCAASGYSFNGYAMGWYRQAPGKEREFVAAISWSGGSTYYADSVKGRFTISRDNAKNTVYLQMNSLKPEDTAVYYCAKRRGGGYDYWGQGTQVTVSS | low polyreactivity
27 | QVQLVESGGGLVQAGGSIRLSCDHSGRNLYRNSMGWYRQAPEKERELVARITSSGASTYYADSVKGRFTISRDNAKNTVTIQMNSLKQEYTAVYYCAAQYLSRRYGPYYTYNYRGQGTQVTVSS | high polyreactivity
28 | QVQLVESGGGLVQAGGSIRLSCSASGNIFSDNAMGWYRQAPGKERELGAAITSGGSTNYADSVNGRFTISRDNAKNTVYLQMNSLKPEDTAVYYCAADRGFYPSLWDYDYWGQGTQVTVSS | low polyreactivity
29 | QVQLVESGGGLVQAGGSIRLTCAASGGTFGRNAMGWYRQAPGKERELVATITRRGGSTYYADSVKGRFTISRDNAKTSVYLQMNSLKAEDTAVYYCAARDVYRGGLFDYWGQGTQVTVSS | high polyreactivity
30 | QVQLVESGGGLVQAGGSLGISCAACGSIFSVNAMGWFRQAPGKERELVAGITISGGRTYYADSVKGRFTISRDNAKNTVYLQKNSLKPEDTAVYYCAAYVDPAYYYWGPGTQVTVSS | low polyreactivity
31 | QVQLVESGGGLVQAGGSLGLSCAASGFIFSSNAMGWYRQARGKERELVAAITSGGGRTYSADSVKRRFTISRDNAKNTVYLQKNSLKPEDTAVYYCNAEQWQSSEYGEWSKRDYWGQGTQVTVSS | low polyreactivity
32 | QVQLVESGGGLVQAGGSLGLSCAASGFSFDRNAMGWYRQAPGKERGLVAAISSSGGRTYYPDSVKGRFTISRDYAKKTVYLQMNSLKPDDTAVYYCAAKLSRRYYYWGQGTQVTVSS | high polyreactivity
33 | QVQLVESGGGLVQAGGSLGLSCAASGFTFTYYAMGWYRQAPGKERELVASISWRGGSTYADSVKGRFTISRDNAQNTVYLQMNSLTPEDTAVYYCAADGYSYGNYIYDYWGQGTQVTVSS | low polyreactivity
34 | QVQLVESGGGLVQAGGSLGLSCAASGFTFYYYAMGWYRQAPGKERELVAIRFRGGNTYYADSVKGRFTISRDNAENTVYLQMNSLKPEDTAVYYCNADDLGSTYVDYDYWGQGTQVTVSS | low polyreactivity
35 | QVQLVESGGGLVQAGGSLGLSCAASGSFFYQNAMGWYRQAPGKDREWVAAISRSGGSTYYADSVMGRFTISRDNAKISVDEQMNSLQPEDTPVYYCAARNSRQGSYSRDFWGQGTQVTVSS | high polyreactivity
36 | QVQLVESGGGLVQAGGSLGLSCAASGSIFEPYVMGWYRPAPGKERELVAAISESGDTTYYADSVKGRFTISRDNAKNTVYLQRNSLKPEDTAVYYCNAEDPSIDGWWRVGEYDYWGQGTQVTVSS | low polyreactivity
37 | QVQLVESGGGLVQAGGSLGLSCAASGSTFGPNAMGWYRQAPGKERELVARITDSGGSTYYADSVKGRFTISRDNAKNTVDLQMNSLKQDDTAVYYCAAEVYLLSRYYTPAYDYWGQGTLVTVSS | low polyreactivity
38 | QVQLVESGGGLVQAGGSLHLSCAASGRTFVWYAMGWYRQAPGKERELVAAISWSGTSTYYADSVKGRFTNSRDYAKYNVYLQMNSLKPEDTAVYYCYEKYYYWGQGTQVTVSS | high polyreactivity
39 | QVQLVESGGGLVQAGGSLILSCAASYAMGWYRQAPGKERELVATIKSGGVSTYYADSVKGRFTISRDNAKNTVYLQMNCLKPEDTAVYDCAANASHSTSADYDYWGQGTQVTVSS | low polyreactivity
40 | QVQLVESGGGLVQAGGSLLLRCAASGRTFKNYAKGWSRQAPGKERELVAAISSGGGRTKYADSEKGRFTISRDNAKNSVYLQLNSLKPDDTAVYYCAAAFYYRDDYWGQGSQVTVSS | high polyreactivity
41 | QVQLVESGGGLVQAGGSLLLSCAAAGSIFRTYAMGWYRQAPGKERELVAAISRSGSSTYYADSVKGRFTISRDNAKNTVYFQMNSLKPEDTAVYYCAALVRKYGVDYWGQGTQVTVSS | high polyreactivity
42 | QVQLVESGGGLVQAGGSLLLSCAASGFTFKCYAMGWYRQAPGKERELVAAISRSGSSTYYADSVKVRFTISRDTAKNTVYLQMNSLKPEDTAVYYCAAYYRTWGGYWGQGTQVTVSS | high polyreactivity
43 | QVQLVESGGGLVQAGGSLLLSCAASGFTFRYYAMGWNRQAPGKERELVAAINSGGSTNYADSVKGLFTISRDNAKNTVYLQMNSLKPEDTAVYYCAKRGRRGIEYLGSAEMDYWGEGTQVTVSS | low polyreactivity
